Source: paper PMC12084297, “Cytoplasmic connexin43-microtubule interactions promote glioblastoma stem-like cell maintenance and tumorigenicity” (Cell Death & Disease, 2025)

Key:
[1] = target: β-tubulin (human (endogenous in VTC-001 and VTC-037 GSCs)) (UniProt P07437); test: cellular thermal shift assay (CETSA); fresh VTC-037 GSC lysates in non-denaturing buffer treated 1 h with 3-fold dilutions (222.2, 74.0, 24.7, 8.2 and 2.7 nM) of peptide, heat challenge at 57 °C for 20 min, centrifugation, immunoblot of the stable protein normalised to DMSO control; EC50 of target engagement
[2] = target: α-tubulin (human (endogenous in VTC-037 GSCs)) (UniProt P68363); test: as above
Chain of α-tubulin (human (endogenous in VTC-037 GSCs)) (P68363 whole entry): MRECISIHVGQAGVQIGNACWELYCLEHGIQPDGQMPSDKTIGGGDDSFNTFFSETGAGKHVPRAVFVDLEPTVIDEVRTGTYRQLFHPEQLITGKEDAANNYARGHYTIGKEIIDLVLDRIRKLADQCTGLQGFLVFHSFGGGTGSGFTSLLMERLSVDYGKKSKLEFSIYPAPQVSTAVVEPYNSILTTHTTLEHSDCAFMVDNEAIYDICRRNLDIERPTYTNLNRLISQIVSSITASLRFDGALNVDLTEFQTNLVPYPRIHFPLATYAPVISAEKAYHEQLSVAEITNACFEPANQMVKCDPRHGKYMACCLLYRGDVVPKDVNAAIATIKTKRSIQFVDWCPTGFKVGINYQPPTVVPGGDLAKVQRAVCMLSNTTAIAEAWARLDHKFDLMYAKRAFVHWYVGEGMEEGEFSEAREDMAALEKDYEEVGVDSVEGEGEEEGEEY

Chain of β-tubulin (human (endogenous in VTC-001 and VTC-037 GSCs)) (P07437 whole entry): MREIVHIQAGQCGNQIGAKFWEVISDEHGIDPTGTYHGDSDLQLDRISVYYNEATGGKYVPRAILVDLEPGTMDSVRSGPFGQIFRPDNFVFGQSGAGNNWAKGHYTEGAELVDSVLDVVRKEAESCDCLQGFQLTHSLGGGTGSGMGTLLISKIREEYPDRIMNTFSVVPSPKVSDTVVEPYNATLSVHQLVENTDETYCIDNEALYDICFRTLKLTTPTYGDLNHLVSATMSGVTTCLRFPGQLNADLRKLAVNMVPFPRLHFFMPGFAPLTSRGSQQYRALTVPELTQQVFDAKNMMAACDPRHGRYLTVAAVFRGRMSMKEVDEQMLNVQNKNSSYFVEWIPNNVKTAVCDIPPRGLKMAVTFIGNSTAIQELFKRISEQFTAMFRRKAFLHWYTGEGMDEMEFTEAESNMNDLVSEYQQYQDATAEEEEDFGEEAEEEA

Substance: JM2 (juxtamembrane 2) peptide
- EC50 [1]: 7.9 nM
- EC50 [2]: 8.4 nM
